The results in this text go back to patent publication US20250282879A1 (CILAG GMBH INTERNATIONAL, published 2025).

Where two headings read alike, the source gives them in different places.

Experiment [1] deals with T1, human IL-4R (form not stated) (human, UniProt P24394 26-232, limits assumed).
T1 construct: whole entry named; also called hIL-4R
In words: competition ELISA, hIL-4/IL-4R. The protocol: Potency of the optimized anti-IL-4R scFvs PRO1898 and PRO1899 scFvs was determined using a competitive ELISA. The potency of each scFv to inhibit the interaction between human IL-4 and human IL-4R was assessed by ELISA as described in section 1.2.2. Similarly, to the stat-6 reporter gene assay, individual IC₅₀ values on each plate were calibrated against the IC₅₀ of the reference molecule dupilumab.
For orientation: In an ELISA, binding on a coated surface is turned into a signal by an enzyme label.

For experiment [2], the target named is T2, Human IL-4R-Fc (human, UniProt P24394 26-232).
T2 construct: also called human IL-4R (scFv SPR, capture setup); not shown: Fc part
Kind of experiment: SPR, hIL-4R-Fc captured, scFv analyte. The protocol: (§1) Affinity of the optimized anti-IL-4R scFvs PRO1898 and PRO1899 to human IL-4R was determined by SPR analysis on a T200 device (Biacore, GE Healthcare), as described above in section 1.2.2. The scFvs were measured using a dose response multi-cycle kinetic assay with seven analyte concentrations ranging from 0.12 to 90 nM diluted in running buffer. Obtained sensorgrams were fitted using a 1:1 binding model.

The next experiment concerns the target T3, cynomolgus IL-4R-Fc (cynomolgus monkey (Macaca fascicularis), UniProt A0A2K5V580 33-239).
T3 construct: also called cynomolgus IL-4R capture setup; not shown: Fc part
Kind of experiment: SPR, capture setup, cynomolgus IL-4R-Fc captured. The protocol:
as §1
Affinity of the optimized anti-IL-4R scFvs PRO1898 and PRO1899 to cynomolgus IL-4R was measured using the same setup as for the analysis of human IL-4R affinities, with the difference that cynomolgus IL-4R-Fc was captured instead of human IL-4R-Fc, as described above in section 1.2.2.
(In general: SPR reads the build-up and loss of mass on a sensor chip optically.)

Experiment [3] concerns the target T4, human IL-4R on cells (HEK-Blue IL-4/IL-13 cells, human PBMC, human whole blood) (human, UniProt P24394 26-825). Kind of experiment: cell-based or functional assay.
Experiment [4] has as its target T4, human IL-4R on cells (HEK-Blue …). In words: cell-based or functional assay. This is another data set of the same source.
Experiment [5] shares this target. In words: cell-based or functional assay. This is another data set of the same source.
Experiment [6] addresses T5, recombinant human IL-31 protein (Peprotech) (human, UniProt Q6EBC2 24-164).
T5 sequence (looked up): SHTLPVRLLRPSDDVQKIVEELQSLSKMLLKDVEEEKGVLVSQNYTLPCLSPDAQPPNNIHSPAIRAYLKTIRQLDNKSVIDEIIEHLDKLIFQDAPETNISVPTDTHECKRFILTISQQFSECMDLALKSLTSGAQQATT
In words: cell-based or functional assay.

The target in experiment [7] is T4, human IL-4R on cells (HEK-Blue …). In words: cell-based or functional assay. The source holds these as a separate data set.
The target in experiment [8] is T5, recombinant human IL-31 protein …. Kind of experiment: cell-based or functional assay. The source holds these as a separate data set.
The target of experiment [9] is recombinant cynomolgus monkey IL-31 (ECD with His Tag, Sino Biological) (cynomolgus monkey). Kind of experiment: cell-based or functional assay.
Experiment [10] concerns the target T6, human IL-4R on transfected HEK293T cells (human, UniProt P24394 26-825).
T6 construct: whole, on cells; also called human IL-4R-expressing HEK293T cells; not shown: V5 Tag fused to the N-terminus of the expression construct
In words: flow cytometry, transfected HEK293T cells. From the text: (§2) To test binding of the Morrison-H and Morrison-L antibodies PRO2198, PRO2199, PRO2206 and PRO2207 to human or cynomolgus IL-4R-expressing HEK293T cells, HEK293T cells were transfected with human and cynomolgus IL-4R plasmids and mock plasmid using Lipofectamine3000. Binding of an antibody targeting V5 Tag, which is fused to the N-terminus of human and cynomolgus IL-4R expression constructs, would confirm successful expression of both targets and was thus used as a positive control for plasma membranous binding. The Morrison-H molecule PRO2077 was used as negative control for cynomolgus IL-4R binding since this molecule had not shown any cross-reactivity to cynomolgus IL-4R (see section 5.3.).
(§3) 50,000 transfected HEK293T cells per well were seeded in a 96-well plate. 5-fold serial dilutions of the Morrison-H and Morrison-L antibodies PRO2198, PRO2199, PRO2206 and PRO2207 and of the control molecule PRO2077, which is not cross-reactive to cynomolgus IL-4R, were added at concentrations ranging from 5,000 to 0.32 ng/ml to the plates and incubated for 60 min at 4° C. on a shaker. Supernatants were removed and detection reagent was added for flow cytometry analysis. The geometric mean of the APC fluorescence intensity of single cells was calculated.
A general note: A flow cytometer gives signals particle by particle.

In experiment [11] the target is T7, cynomolgus IL-4R on transfected HEK293T cells (cynomolgus monkey, UniProt A0A2K5V580 33-832).
T7 construct: whole, on cells; also called cynomolgus IL-4R-expressing HEK293T cells; not shown: V5 Tag fused to the N-terminus of the expression construct
T7 sequence (A0A2K5V580 entry or part of it): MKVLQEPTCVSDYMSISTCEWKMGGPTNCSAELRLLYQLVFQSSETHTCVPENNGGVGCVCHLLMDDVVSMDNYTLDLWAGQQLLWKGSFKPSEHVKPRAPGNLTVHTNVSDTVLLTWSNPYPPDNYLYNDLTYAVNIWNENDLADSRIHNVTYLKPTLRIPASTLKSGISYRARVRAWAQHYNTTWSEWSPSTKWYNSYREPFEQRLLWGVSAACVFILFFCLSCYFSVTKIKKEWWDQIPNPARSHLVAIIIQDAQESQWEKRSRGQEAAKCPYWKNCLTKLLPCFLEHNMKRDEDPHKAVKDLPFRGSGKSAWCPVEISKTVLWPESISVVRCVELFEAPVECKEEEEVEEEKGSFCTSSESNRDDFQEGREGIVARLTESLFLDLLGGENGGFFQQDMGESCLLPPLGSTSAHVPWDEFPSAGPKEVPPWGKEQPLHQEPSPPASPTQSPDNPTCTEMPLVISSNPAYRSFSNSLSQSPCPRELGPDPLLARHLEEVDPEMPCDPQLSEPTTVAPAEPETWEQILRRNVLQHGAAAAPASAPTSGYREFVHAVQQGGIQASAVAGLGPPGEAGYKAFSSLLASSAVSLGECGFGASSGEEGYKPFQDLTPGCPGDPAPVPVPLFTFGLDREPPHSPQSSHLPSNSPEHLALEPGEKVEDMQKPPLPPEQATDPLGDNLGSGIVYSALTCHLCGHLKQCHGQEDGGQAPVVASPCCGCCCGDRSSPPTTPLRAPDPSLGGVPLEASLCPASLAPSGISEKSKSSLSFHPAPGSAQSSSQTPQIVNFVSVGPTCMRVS
In words: flow cytometry, transfected HEK293T cells.
Description: as §2, §3

The target in experiment [12] is T8, recombinant human IL-4R protein (ECD with His Tag, Sino Biological) (human, UniProt P24394 26-232).
T8 construct: extracellular domain; bought; also called human IL-4R ECD; not shown: His Tag
In words: SPR, Morrison captured via anti-human IgG-Fc, IL-4R ECD-His analyte. The protocol: (§4) Binding kinetics (including affinity) of the bispecific Morrison-H (PRO2198, PRO2199) and Morrison-L (PRO2206, PRO2207) molecules to recombinant human IL-4R protein (ECD with His Tag, Sino Biological) were determined by SPR analysis on a T200 device (Biacore, Cytiva). In this SPR experiment, Morrison molecules were captured via an anti-human IgG-Fc antibody (Human Antibody Capture Kit; Biacore, Cytiva) covalently immobilized to a carboxylmethylated dextran surface (CM5 sensorchip; Biacore, Cytiva) and a titration series of human IL-4R ECD was injected as analyte. After each analyte injection cycle, the sensor chip was regenerated (MgCl₂), and new Morrison antibody was subsequently re-captured. […] The apparent dissociation (kd) and association (kₐ) rate constants and the apparent dissociation equilibrium constant (KD) were calculated with the Biacore analysis software (Biacore Evaluation software Version 3.2, Cytiva) using one-to-one Langmuir binding model and quality of the fits was monitored based on Chi2 and U-value, which are measures for the quality of the curve fitting. The binding level was calculated as the maximum stability binding achieved normalized to the theoretical Rmax. Cross-reactivity to cynomolgus monkey IL-4R was measured using the same setup as for the analysis of human IL-4R kinetics, with the difference that recombinant cynomolgus monkey IL-4R (ECD with His-tag, Acro Biosystems) protein was used as analyte instead of human IL-4R.

Experiment [13] has as its target T9, recombinant cynomolgus monkey IL-4R (ECD with His-tag, Acro Biosystems) (cynomolgus monkey, UniProt A0A2K5V556 26-232).
T9 construct: bought; also called cynomolgus IL-4R
The description is as above. On the procedure: as §4

Experiment [14] addresses T4, human IL-4R on cells (HEK-Blue …). Kind of experiment: cell-based or functional assay. This is another data set of the same source.
In experiment [15] the target is T2, Human IL-4R-Fc. In words: SPR, hIL-4R-Fc captured, scFv analyte. This is another data set of the same source.
A further experiment concerns the target T10, marmoset IL-4R ECD (marmoset (Callithrix jacchus), UniProt Q0PIT7 26-232).
T10 construct: immobilized directly on the sensor chip; also called marmoset monkey IL-4R
Kind of experiment: SPR, direct setup, marmoset IL-4R ECD immobilized.

T9 sequence (A0A2K5V556 entry or part of it limits assumed): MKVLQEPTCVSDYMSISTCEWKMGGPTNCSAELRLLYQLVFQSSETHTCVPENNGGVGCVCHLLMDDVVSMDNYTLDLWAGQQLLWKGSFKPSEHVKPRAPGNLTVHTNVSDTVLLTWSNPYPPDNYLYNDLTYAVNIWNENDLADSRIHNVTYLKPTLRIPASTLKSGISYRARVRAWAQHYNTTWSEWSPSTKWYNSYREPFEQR
T10 sequence (Q0PIT7 entry or part of it limits assumed): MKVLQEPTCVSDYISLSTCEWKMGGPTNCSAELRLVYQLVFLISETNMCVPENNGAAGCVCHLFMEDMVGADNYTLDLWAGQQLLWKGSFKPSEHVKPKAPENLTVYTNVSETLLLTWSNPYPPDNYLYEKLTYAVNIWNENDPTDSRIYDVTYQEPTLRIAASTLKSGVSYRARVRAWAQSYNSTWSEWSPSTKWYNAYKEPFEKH

B1: PRO1898 (scFv, V domains shown)
VH: EVQLVESGGGLVQPGGSLRLSCAASGFSSSSAHYMCWVRQAPGKGLEWIGCIYAGSRGSTYYASWAKGRFTISRDNSKNTVYLQMNSLRAEDTAVYYCARAAFVNRGVSWIWPYYFSLWGQGTLVTVSS
VL: DIQMTQSPSSLSARVGDRVTITCQASEDIESYLAWYQQKPGKAPKLLIYRASTLAYGVPSRFSGSGSGRDFTLTISSLQPEDFATYYCLGSSYSTGSNIFGTGTKVTVLG
notes: scFv; VL entry ends with LCDR3 (no FR4); also called 44-34-C10-sc08
B1 registered an IC50 in [1] of 3.41 ng/mL. Moreover, in the experiment with Human IL-4R-Fc [2], binding was put at a Kd of 0.00791 nM, the koff worked out at 1.7e-05 s⁻¹ and the kon was 2.15e+06 M⁻¹ s⁻¹. Further, in the experiment with cynomolgus IL-4R-Fc, the Kd worked out at 0.0908 nM, the koff was 0.000109 s⁻¹ and the kon turned out to be 1.2e+06 M⁻¹ s⁻¹.

B2: PRO1899 (scFv, V domains shown)
VH: EVQLVESGGGRVQPGGSLRLSCAASGFSSSSAHYMCWVRQAPGKGLEWIGCIYAGSRGSTYYASWAKGRFTISKASSTTVYLQMNSLRAEDTATYYCARAAFVNRGVSWIWPYYFSLWGQGTQVTVSS
VL: DIQMTQSPSSLSASVGDRVTITCQASEDIESYLAWYQQKPGKAPKLLIYRASTLAYGVPSRFSGSGSGTDFTLTISSLQPEDFATYYCLGSSYSTGSNIFGTGTKVTVLG
notes: scFv; VL entry ends with LCDR3 (no FR4); also called 44-34-C10-sc09
Regarding B2, the IC50 in experiment [1] was 2.98 ng/mL. Further, in the experiment with Human IL-4R-Fc [2], the Kd was 0.00692 nM, the koff amounted to 2.04e-05 s⁻¹ and the kon is 2.95e+06 M⁻¹ s⁻¹. Besides, in the experiment with cynomolgus IL-4R-Fc, the affinity, expressed as Kd, was 0.012 nM; the koff worked out at 0.00014 s⁻¹; the kon came to 1.1e+07 M⁻¹ s⁻¹.

B3: PRO2199 (bispecific antibody, human IgG4 S228P, kappa)
light: DIQMTQSPSSLSASVGDRVTITCQASEDIESYLAWYQQKPGKAPKLLIYRASTLAYGVPSRFSGSGSGTDFTLTISSLQPEDFATYYCLGSSYSTGSNIFGQGTKVEIKRTVAAPSVFIFPPSDEQLKSGTASVVCLLNNFYPREAKVQWKVDNALQSGNSQESVTEQDSKDSTYSLSSTLTLSKADYEKHKVYACEVTHQGLSSPVTKSFNRGEC
heavy: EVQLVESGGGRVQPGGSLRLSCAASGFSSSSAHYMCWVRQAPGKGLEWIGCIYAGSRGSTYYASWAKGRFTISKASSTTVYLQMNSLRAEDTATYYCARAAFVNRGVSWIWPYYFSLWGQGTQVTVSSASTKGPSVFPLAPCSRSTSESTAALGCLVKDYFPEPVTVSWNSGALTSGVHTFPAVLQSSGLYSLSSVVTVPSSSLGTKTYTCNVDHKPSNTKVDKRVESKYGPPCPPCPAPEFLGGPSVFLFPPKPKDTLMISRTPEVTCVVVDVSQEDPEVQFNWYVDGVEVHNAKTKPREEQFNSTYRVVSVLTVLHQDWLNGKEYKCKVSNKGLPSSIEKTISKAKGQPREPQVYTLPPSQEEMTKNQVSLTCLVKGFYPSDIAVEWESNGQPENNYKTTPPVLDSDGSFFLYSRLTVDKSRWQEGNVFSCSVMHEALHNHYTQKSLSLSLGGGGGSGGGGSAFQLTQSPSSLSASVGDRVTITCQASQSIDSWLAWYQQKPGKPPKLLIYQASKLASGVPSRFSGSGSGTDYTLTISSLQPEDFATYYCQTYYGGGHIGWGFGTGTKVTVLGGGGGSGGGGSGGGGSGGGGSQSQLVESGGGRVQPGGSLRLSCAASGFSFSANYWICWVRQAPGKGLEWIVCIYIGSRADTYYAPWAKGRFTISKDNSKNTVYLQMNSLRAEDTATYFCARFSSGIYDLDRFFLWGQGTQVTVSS
notes: IgG4 (S228P) Morrison-H; also called Morrison-H; MorrH
As to B3, in experiment [3], the “IC50, IL-4-induced TARC secretion in human whole blood” value is less than 0.5 nM. For the same molecule, the “Mean IC50, human IL-4-induced signaling, stat-6 reporter gene assay” value in [4] was found to be 0.0115 nM. Further, the “IC50 (single analysis), human IL-13-induced signaling, stat-6 reporter gene assay” value in [5] was determined as 0.0113 nM. The “Mean IC50, human IL-31-induced signaling, IL-31RA/OSMR dimerization assay” value in experiment [6] was found to be 0.142 nM. For the same molecule, in experiment [7], the “IC50, IL-4-induced CD23 expression, memory B cells” value amounted to 2.53 nM; the “IC50, IL-4-induced CD23 expression, monocytes (blood donor 1)” value came to 0.0697 nM; the “IC50, IL-4-induced CD23 expression, naive B cells” value was found to be 1.1 nM. In addition, in experiment [8], the “IC50 (read off the curve), human IL-31-induced IL-31RA/OSMR dimerization, with an excess of IL-4R extracellular domain in the medium” value is approximately 0.1 nM. The “IC50, cynomolgus IL-31-induced IL-31RA/OSMR dimerization (RLU) [table under the graph]” value in experiment [9] is 1.21 nM. The molecule also came in with an EC50 in experiment [10] of 0.85 nM. In [11], this molecule returned an EC50 of 1.78 nM. Moreover, in experiment [12], the dissociation constant (Kd) amounted to 0.197 nM, the koff is 5.76e-05 s⁻¹ and the kon came out at 293000 M⁻¹ s⁻¹. Moreover, in experiment [13], the Kd was 0.0351 nM, the koff was 3.44e-05 s⁻¹ and the kon came out at 980000 M⁻¹ s⁻¹.

B4: PRO1535 (scFv)
chain: DIQMTQSPSSLSASVGDRVTITCQASEDIESYLAWYQQKPGKPPKLLIYRASTLAYGVPSRFSGSGSGTDFTLTISSLQPEDFATYYCLGSSYSTGSNIFGTGTKVTVLGGGGGSGGGGSGGGGSGGGGSESQLVESGGGLVQPGGSLRLSCAASGFSSSSAHYMCWVRQAPGKGLEWIACIYAGSRGSTYYASWAKGRFTISKDNSKNTVYLQMNSLRAEDTAVYFCARAAFVNRGVSWIWPYYFSLWGQGTLVTVSS
As to B4, in experiment [14], the “IC50, neutralization of hIL-4-induced signaling, stat-6 reporter gene assay” value came to 1.15 ng/mL and the “IC50, neutralization of hIL-13-induced signaling, stat-6 reporter gene assay” value came out at 2.3 ng/mL. In addition, in the experiment with Human IL-4R-Fc [15], the Kd worked out at 0.0199 nM, the koff is 5.42e-05 s⁻¹ and the kon is 2.72e+06 M⁻¹ s⁻¹. Also, in the experiment with marmoset IL-4R ECD, the Kd turned out to be 0.787 nM, the koff came out at 0.00254 s⁻¹ and the kon came to 3.23e+06 M⁻¹ s⁻¹.

As usually defined, the IC50 is the concentration that gives 50% inhibition. In general, Kd refers to the constant that tells how readily two partners part at equilibrium. For orientation: koff means the rate constant with which the complex falls apart. As a reminder, the kon is the second-order rate constant of association. A word on the EC50: it is the concentration at which the effect is half-maximal.
